# Results published in US20240018201A1.
# Assays:
# [1] = target: human TNF alpha (Miltenyi, from yeast, Catalog no. 130-094) (human) (UniProt P01375); experiment: SPR, Biacore 8K (column head prints nM; koff/kon gives this number in M)
# [2] = target: Llama Anti-human LC-kappa VHH Single Domain Antibody [Biotin] (CAT #: NABG-118); experiment: BLI, biotinylated VHH ligand on streptavidin biosensor
# [3] = target: human TNF alpha (Miltenyi, from yeast, Catalog no. 130-094) (human) (UniProt P01375); experiment: SPR, Biacore 8K
# Chain of UniProt P01375 (P01375 77-233 limits assumed): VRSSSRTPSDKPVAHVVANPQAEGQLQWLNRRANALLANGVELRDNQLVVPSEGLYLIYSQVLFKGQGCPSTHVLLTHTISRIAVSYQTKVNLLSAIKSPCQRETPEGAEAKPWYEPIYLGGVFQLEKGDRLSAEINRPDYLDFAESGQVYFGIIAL
Kd [1] [nM],% Response BLI of construct in comparison to wildtype (=% Binding to Kappa-ligand) [2] [%],% KD to wildtype [3] [%],% koff to wildtype [3] [%],% kon to wildtype [3] [%],koff [3] [s⁻¹],kon [3] [M⁻¹ s⁻¹],Substance
0.0531,100,–,–,–,–,–,Adalimumab with WT light chain (no mutations) and L234A/L235A human IgG Fc variant (antibody)
0.0583,12.5,110,90.5,90.5,0.000216,3.71e+06,Adalimumab variant with Thr109Arg + Ser202Arg light chains (L234A/L235A Fc) (antibody)
0.0553,7.87,104,92.7,92.7,0.00021,3.8e+06,Adalimumab variant with His198Arg light chains (L234A/L235A Fc) (antibody)
0.0528,1.66,99.4,96.1,96.1,0.000208,3.94e+06,Adalimumab variant with Gln199Trp light chains (L234A/L235A Fc) (antibody)
